Literature values as cited in US20230042670A1, “Hypoparathyroidism Treatment” (Ascendis Pharma Bone Diseases A/S, priority 2020, published 2023).

Legend:
[1] = in vivo
[2] = system: patients with hypoparathyroidism

PTH(1-84): short acting PTH molecule, approved drug for hypoparathyroidism; PTH 1-84, SEQ ID NO: 1
half-life [1]: ~3 h | clinical episodes of hypercalcemia ([2]; on treatment versus placebo, 24 weeks): numerical increase | clinical episodes of hypocalcemia ([2]; versus placebo, 24 weeks): no significant difference | urinary calcium excretion ([2]; versus placebo, 24 weeks): no significant difference | patients achieving the primary endpoint (50% or greater reduction in daily oral calcium and active vitamin D while maintaining serum calcium) ([2]; week 24, 50 μg per day titrated up to 100 μg): 53%
